Data as given in US20240254222A1 (Bayer, published 2024).
Where a chain is given by its changes, count along the chain named.

T1: Cyno Semaphorin3A-Sema Domain, TPP-19122 (cynomolgus (Macaca fascicularis), UniProt Q63548 21-569 (rat entry), limits assumed)
T1 construct: produced inhouse
T1 chain: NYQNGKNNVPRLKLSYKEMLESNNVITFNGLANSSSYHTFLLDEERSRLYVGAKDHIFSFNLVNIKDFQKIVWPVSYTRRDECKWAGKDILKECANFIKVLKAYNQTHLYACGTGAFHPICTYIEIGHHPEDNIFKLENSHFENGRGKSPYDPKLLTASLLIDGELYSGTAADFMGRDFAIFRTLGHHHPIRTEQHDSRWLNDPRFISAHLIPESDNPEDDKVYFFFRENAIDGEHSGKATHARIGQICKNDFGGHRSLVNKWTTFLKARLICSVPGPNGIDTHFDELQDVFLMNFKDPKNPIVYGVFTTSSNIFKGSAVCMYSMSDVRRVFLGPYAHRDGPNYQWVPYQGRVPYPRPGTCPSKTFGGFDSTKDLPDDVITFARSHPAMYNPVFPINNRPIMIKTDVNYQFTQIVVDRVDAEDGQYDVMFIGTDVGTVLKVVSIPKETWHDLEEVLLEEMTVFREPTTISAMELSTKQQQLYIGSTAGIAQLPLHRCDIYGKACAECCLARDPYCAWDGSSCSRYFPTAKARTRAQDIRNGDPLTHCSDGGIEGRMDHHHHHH

T2: human wild-type Sema3A of SEQ ID NO: 600, expressed by HEK293 cells (human, UniProt Q14563 22-771, limits assumed)
T2 sequence: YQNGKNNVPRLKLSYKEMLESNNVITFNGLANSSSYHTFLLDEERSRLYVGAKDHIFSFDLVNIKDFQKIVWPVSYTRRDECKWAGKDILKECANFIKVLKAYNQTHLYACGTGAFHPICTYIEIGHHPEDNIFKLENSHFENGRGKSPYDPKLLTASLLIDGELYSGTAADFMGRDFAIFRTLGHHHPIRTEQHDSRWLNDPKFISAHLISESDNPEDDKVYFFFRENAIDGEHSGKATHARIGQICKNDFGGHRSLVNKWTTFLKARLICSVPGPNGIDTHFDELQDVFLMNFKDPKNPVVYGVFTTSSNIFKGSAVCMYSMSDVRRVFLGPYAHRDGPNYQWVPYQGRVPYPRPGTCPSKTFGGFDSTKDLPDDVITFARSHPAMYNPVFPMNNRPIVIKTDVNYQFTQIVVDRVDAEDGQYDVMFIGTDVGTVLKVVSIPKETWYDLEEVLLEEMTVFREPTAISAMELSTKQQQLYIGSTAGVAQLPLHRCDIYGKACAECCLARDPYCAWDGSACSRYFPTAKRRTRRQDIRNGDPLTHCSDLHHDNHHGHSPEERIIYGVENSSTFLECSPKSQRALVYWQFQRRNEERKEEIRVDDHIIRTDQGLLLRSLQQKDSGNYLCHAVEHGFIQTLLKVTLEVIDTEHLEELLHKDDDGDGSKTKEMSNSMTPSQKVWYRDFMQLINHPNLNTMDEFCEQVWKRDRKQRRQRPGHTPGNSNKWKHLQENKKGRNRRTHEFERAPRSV

B1: TPP-11489 (antibody, human IgG1, lambda)
heavy: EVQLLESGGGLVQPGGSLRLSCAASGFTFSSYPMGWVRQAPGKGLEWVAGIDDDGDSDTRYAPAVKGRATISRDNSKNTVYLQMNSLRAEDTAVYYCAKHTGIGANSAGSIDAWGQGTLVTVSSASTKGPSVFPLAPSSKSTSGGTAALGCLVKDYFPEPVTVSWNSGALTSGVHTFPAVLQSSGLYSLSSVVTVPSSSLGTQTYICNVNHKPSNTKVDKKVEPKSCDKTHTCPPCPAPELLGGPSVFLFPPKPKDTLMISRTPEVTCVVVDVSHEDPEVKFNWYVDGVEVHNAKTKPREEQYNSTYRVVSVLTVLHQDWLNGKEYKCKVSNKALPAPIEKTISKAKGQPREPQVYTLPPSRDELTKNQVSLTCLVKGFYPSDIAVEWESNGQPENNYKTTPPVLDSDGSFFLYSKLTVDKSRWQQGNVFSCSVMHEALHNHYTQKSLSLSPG
light: SYELTQPPSVSVSPGQTARITCSGGGSYTGSYYYGWYQQKPGQAPVTVIYYNNKRPSDIPERFSGSLSGTTNTLTISGVQAEDEADYYCGSADNSGDAFGTGTKVTVLGQPKAAPSVTLFPPSSEELQANKATLVCLISDFYPGAVTVAWKADSSPVKAGVETTTPSKQSNNKYAASSYLSLTPEQWKSHRSYSCQVTHEGSTVEKTVAPTECS
notes: human IgG1; also called Chiome; Chiome Prior Art (hIgG1)
B2: TPP-30788 (antibody, human IgG1, kappa, V domains shown)
VH: EVQLVESGGGLVQPGGSLRLSCAASGFTFSSYYMSWVRQAPGKGLEWVSTIIKSGGYAYYPDSVKDRFTISRDNSKNTLYLQMSSLRAEDTAVYYCVRGGQGAMDYWGQGTTVTVSS
VL: EIVLTQSPATLSLSPGERATLSCRASQSIGDYLHWYQQKPGQAPRLLIKYASQSISGIPARFSGSGSGTDFTLTITSLEPEDFAVYYCQQGYSFPYTFGGGTKLEIKR
notes: prior art, WO 2020/225400; also called BI clone I; Böhringer (BI) Clone I
B3: TPP-30791 (antibody, human IgG1, kappa, V domains shown)
VH: B2 VH with V12L, P14L, Y80N, S84N, R98K
VL: B2 VL with T76S
notes: prior art, WO 2020/225400; also called BI clone IV; Böhringer (BI) Clone IV
B4: TPP-30789 (antibody, human IgG1, kappa, V domains shown)
VH: B2 VH with T28P
VL: B2 VL
notes: prior art, WO 2020/225400; also called BI clone II; Böhringer (BI) Clone II
B5: TPP-30790 (antibody, human IgG1, kappa, V domains shown)
VH: B2 VH with P14L, S84N, R98K
VL: B2 VL with K49Y, T76S
notes: prior art, WO 2020/225400; also called BI clone III; Böhringer (BI) Clone III
B6: TPP-15374 (antibody, human IgG1, lambda, V domains shown)
VH: EVQLLESGGGLVQPGGSLRLSCAASGFTFSSYEMNWVRQAPGKGLEWVSGISWNSGSIGYADSVKGRFTISRDNSKNTLYLQMNSLRAEDTAVYYCARSGYSSSWFDPDFDYWGQGTLVTVSS
VL: QSVLTQPPSASGTPGQRVTISCTGSSSNIGAGYDVHWYQQLPGTAPKLLIYGNSNRPSGVPDRFSGSKSGTSASLAISGLRSEDEADYYCSSYAGSNPYVVFGGGTKLTVLG
notes: human IgG1; also called IgG1, hit from panning; parental mAb
B7: TPP-23337 (antibody, human IgG4 S228P, lambda, V domains shown)
VH: EVQLLESGGGLVQPGGSLRLSCAASGFTFSSYAMSWVRQAPGKGLEWVSAIGYGGDTYYADSVKGRFTISRDNSKNTLYLQMNSLRAEDTAVYYCARRDDYTSRDAFDYWGQGTLVTVSS
VL: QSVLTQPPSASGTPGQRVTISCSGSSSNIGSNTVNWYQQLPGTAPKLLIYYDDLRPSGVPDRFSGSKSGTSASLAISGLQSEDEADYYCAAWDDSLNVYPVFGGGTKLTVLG
B8: TPP-15370 (antibody, human IgG1, lambda, V domains shown)
VH: B7 VH with A33G, S35H, Y53T, K64M, Y109V
VL: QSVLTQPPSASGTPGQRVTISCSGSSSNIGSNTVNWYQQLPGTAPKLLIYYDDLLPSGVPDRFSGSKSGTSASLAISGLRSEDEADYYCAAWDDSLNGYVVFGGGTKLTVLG
notes: as for B6
B9: TPP-23373 (antibody, human IgG4 S228P, lambda, V domains shown)
VH: B7 VH with S30Y
VL: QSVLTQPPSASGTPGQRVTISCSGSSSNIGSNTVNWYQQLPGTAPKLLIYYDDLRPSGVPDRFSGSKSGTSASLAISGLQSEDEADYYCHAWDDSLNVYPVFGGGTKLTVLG
B10: TPP-23334 (antibody, human IgG4 S228P, lambda, V domains shown)
VH: B7 VH
VL: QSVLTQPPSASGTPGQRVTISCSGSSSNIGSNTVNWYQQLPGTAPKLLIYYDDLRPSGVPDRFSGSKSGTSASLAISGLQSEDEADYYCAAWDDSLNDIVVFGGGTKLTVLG
B11: TPP-23375 (antibody, human IgG4 S228P, lambda, V domains shown)
VH: B7 VH with S30Y
VL: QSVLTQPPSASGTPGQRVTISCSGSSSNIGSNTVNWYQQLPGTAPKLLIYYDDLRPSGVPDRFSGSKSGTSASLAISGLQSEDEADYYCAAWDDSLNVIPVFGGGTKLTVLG
B12: TPP-23374 (antibody, human IgG4 S228P, lambda, V domains shown)
VH: B7 VH with S30Y
VL: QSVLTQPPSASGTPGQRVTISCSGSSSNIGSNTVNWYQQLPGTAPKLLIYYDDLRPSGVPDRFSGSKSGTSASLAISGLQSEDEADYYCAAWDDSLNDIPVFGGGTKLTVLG
B13: TPP-23298 (antibody, human IgG4 S228P, lambda, V domains shown)
VH: B7 VH with S30Y, Y53T
VL: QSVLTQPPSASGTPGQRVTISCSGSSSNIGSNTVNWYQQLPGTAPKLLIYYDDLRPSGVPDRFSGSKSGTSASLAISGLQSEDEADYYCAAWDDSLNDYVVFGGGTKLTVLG
B14: TPP-23341 (antibody, human IgG4 S228P, lambda, V domains shown)
VH: B7 VH
VL: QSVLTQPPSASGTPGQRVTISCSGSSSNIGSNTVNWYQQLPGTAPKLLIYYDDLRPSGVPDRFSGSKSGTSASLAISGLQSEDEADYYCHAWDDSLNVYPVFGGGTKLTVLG
B15: TPP-23340 (antibody, human IgG4 S228P, lambda, V domains shown)
VH: B7 VH
VL: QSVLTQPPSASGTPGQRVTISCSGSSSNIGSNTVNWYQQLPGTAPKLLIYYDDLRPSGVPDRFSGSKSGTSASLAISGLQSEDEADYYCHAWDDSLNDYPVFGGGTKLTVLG
B16: TPP-17755 (antibody, human IgG1, lambda, V domains shown)
VH: EVQLLESGGGLVQTGGSLRLSCAASGFTFSDYAMSWVRQAPGKGLEWVSWIYYDSGSKYYADSVKGRFTISRDNSKNTLYLQMNSLRAEDTAVYYCAKLNGDFDYWGQGTLVTVSS
VL: QSVLTQPPSASGTPGQRVTISCSGSSSNIGNNDVSWYQQLPGTAPKLLIYADSHRPSGVPDRFSGSKSGTSASLAISGLRSEDEADYYCGAWDSSLSGYVFGGGTKLTVLG
notes: also called Samsung; Samsung Prior Art F11

Columns and labels:
[1] = molecular target: T1, Cyno Semaphorin3A-Sema Domain, TPP-19122; experiment: SPR, captured antibody, Sema3A domain analyte
Method in brief: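 Antibodies captured on anti-human Fc surface, monovalent Sema3A domain (human, mouse, cyno, rat, dog, pig) injected at 0.024-3.125 nM, multi-cycle kinetics, 25° C, HBS P+ with 300 mM NaCl, CaCl₂, MgCl₂, BSA. Double-referenced sensorgrams fitted 1:1 Langmuir; binding activity = experimental RMax / theoretical RMax.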

[2] = molecular target: T2, human wild-type Sema3A of SEQ ID NO: …; experiment: cell-based or functional assay
[3] = molecular target: T3, Human Semaphorin3A-Fc (R&D Systems), TPP-13211 (human); experiment: ELISA, signal on TPP-13211 divided by signal on TPP-19068
T3 construct: R&D Systems 1250-S3; also called recombinant human Sema3A-Fc chimera
Excerpt: In the in vivo situation Sema3A exists in both forms side by side.

[4] = molecular target: T3, Human Semaphorin3A-Fc (R&D Systems), …; experiment: cell-based or functional assay
[5] = molecular target: T2, human wild-type Sema3A of SEQ ID NO: …; experiment: cell-based or functional assay; remark: listed apart in the source

T3 sequence (chain, as listed by the source limits assumed): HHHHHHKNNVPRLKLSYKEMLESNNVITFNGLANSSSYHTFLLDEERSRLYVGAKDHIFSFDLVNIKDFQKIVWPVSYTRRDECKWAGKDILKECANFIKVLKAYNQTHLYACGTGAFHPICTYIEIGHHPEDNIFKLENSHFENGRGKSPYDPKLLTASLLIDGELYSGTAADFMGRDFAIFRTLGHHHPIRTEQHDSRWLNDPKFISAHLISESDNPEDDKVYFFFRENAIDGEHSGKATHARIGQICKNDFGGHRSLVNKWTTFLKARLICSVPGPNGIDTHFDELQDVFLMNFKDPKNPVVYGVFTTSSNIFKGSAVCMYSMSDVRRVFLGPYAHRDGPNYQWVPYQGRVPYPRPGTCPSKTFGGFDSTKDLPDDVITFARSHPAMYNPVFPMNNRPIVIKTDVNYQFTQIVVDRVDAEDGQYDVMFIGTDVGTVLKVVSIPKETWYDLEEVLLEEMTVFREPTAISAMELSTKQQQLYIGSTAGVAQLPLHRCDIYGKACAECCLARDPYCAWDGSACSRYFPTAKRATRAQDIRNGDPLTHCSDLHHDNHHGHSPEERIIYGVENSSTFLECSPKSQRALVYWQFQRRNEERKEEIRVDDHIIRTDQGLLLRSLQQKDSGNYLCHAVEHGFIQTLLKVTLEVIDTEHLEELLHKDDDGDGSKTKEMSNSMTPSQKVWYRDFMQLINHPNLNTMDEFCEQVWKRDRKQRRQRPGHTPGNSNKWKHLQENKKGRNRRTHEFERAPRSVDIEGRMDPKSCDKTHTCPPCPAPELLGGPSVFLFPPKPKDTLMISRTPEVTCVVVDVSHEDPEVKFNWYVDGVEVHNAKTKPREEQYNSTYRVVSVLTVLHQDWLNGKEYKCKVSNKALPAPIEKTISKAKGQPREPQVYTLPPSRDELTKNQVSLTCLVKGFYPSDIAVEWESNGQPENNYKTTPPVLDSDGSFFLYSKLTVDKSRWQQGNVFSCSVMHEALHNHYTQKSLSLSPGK

Binder	Binding Activity [%] [1] [%]	EC50 (pM), HUVEC repulsion assay, second experiment [2] [pM]	Ratio ELISA binding TPP-13211/TPP-19068 [3]	EC50 (nM), GCC assay [4] [nM]	EC50 (pM), HUVEC repulsion assay [5] [pM]
B1	13	> 20000			
B2	107	104	0.19		
B3	107	221	0.21		
B4	103	165	0.2		
B5	92	121	0.19		
B6	104			8.13	
B7				2.12	170
B8	139			4.33	800
B9					180
B10				2.24	120
B11					123
B12				2.19	77
B13	106	54	0.66	2.4	80
B14					113
B15					180
B16	53	2790		52.7	
